Experimental data as given in the Human Domainome abundance scans (Beltran et al. 2025).
± gives the uncertainty stated by the source.

B1: Transcriptional regulator ERG, residues 117 to 197; numbered along this chain, P11308 (parent)
chain: NMTTNERRVIVPADPTLWSTDHVRQWLEWAVKEYGLPDVNILLFQNIDGKELCKMTKDDFQRLTPSYNADILLSHLHYLRE

Variants of: B1
Assay: abundance fitness (aPCA) (normalised: wild type 0, dead -1); higher = more abundant; growth selection in yeast, the domain comes from the species named
Settings: Homo sapiens

Variant	abundance fitness
NMTTNERRVIVPLDPTLWSTDHVRQWLEWAVKEYGLPDVNILLFQNIDGKELCKMTKDDFQRLTPSYNADILLSHLHYLRE [A13L]	-0.046 ± 0.045
NMTTNERRVIVPAVPTLWSTDHVRQWLEWAVKEYGLPDVNILLFQNIDGKELCKMTKDDFQRLTPSYNADILLSHLHYLRE [D14V]	-0.656 ± 0.094
NMTTNERRVIVPAMPTLWSTDHVRQWLEWAVKEYGLPDVNILLFQNIDGKELCKMTKDDFQRLTPSYNADILLSHLHYLRE [D14M]	-0.537 ± 0.11
NMTTNERRVIVPAAPTLWSTDHVRQWLEWAVKEYGLPDVNILLFQNIDGKELCKMTKDDFQRLTPSYNADILLSHLHYLRE [D14A]	-0.716 ± 0.096
NMTTNERRVIVPALPTLWSTDHVRQWLEWAVKEYGLPDVNILLFQNIDGKELCKMTKDDFQRLTPSYNADILLSHLHYLRE [D14L]	-0.771 ± 0.13
NMTTNERRVIVPAWPTLWSTDHVRQWLEWAVKEYGLPDVNILLFQNIDGKELCKMTKDDFQRLTPSYNADILLSHLHYLRE [D14W]	-0.809 ± 0.15
NMTTNERRVIVPAYPTLWSTDHVRQWLEWAVKEYGLPDVNILLFQNIDGKELCKMTKDDFQRLTPSYNADILLSHLHYLRE [D14Y]	-0.723 ± 0.16
NMTTNERRVIVPAIPTLWSTDHVRQWLEWAVKEYGLPDVNILLFQNIDGKELCKMTKDDFQRLTPSYNADILLSHLHYLRE [D14I]	-0.726 ± 0.2
NMTTNERRVIVPAEPTLWSTDHVRQWLEWAVKEYGLPDVNILLFQNIDGKELCKMTKDDFQRLTPSYNADILLSHLHYLRE [D14E]	-0.346 ± 0.089
NMTTNERRVIVPAFPTLWSTDHVRQWLEWAVKEYGLPDVNILLFQNIDGKELCKMTKDDFQRLTPSYNADILLSHLHYLRE [D14F]	-0.444 ± 0.12
NMTTNERRVIVPAGPTLWSTDHVRQWLEWAVKEYGLPDVNILLFQNIDGKELCKMTKDDFQRLTPSYNADILLSHLHYLRE [D14G]	-0.706 ± 0.073
NMTTNERRVIVPATPTLWSTDHVRQWLEWAVKEYGLPDVNILLFQNIDGKELCKMTKDDFQRLTPSYNADILLSHLHYLRE [D14T]	-0.417 ± 0.078
NMTTNERRVIVPANPTLWSTDHVRQWLEWAVKEYGLPDVNILLFQNIDGKELCKMTKDDFQRLTPSYNADILLSHLHYLRE [D14N]	-0.083 ± 0.07
NMTTNERRVIVPAHPTLWSTDHVRQWLEWAVKEYGLPDVNILLFQNIDGKELCKMTKDDFQRLTPSYNADILLSHLHYLRE [D14H]	-0.146 ± 0.093
NMTTNERRVIVPAPPTLWSTDHVRQWLEWAVKEYGLPDVNILLFQNIDGKELCKMTKDDFQRLTPSYNADILLSHLHYLRE [D14P]	-0.898 ± 0.17
NMTTNERRVIVPACPTLWSTDHVRQWLEWAVKEYGLPDVNILLFQNIDGKELCKMTKDDFQRLTPSYNADILLSHLHYLRE [D14C]	-0.085 ± 0.065
NMTTNERRVIVPARPTLWSTDHVRQWLEWAVKEYGLPDVNILLFQNIDGKELCKMTKDDFQRLTPSYNADILLSHLHYLRE [D14R]	-0.783 ± 0.092

Variant	abundance fitness
NMTTNERRVIVPAKPTLWSTDHVRQWLEWAVKEYGLPDVNILLFQNIDGKELCKMTKDDFQRLTPSYNADILLSHLHYLRE [D14K]	-0.872 ± 0.19
NMTTNERRVIVPADPQLWSTDHVRQWLEWAVKEYGLPDVNILLFQNIDGKELCKMTKDDFQRLTPSYNADILLSHLHYLRE [T16Q]	-0.171 ± 0.083
NMTTNERRVIVPADPKLWSTDHVRQWLEWAVKEYGLPDVNILLFQNIDGKELCKMTKDDFQRLTPSYNADILLSHLHYLRE [T16K]	-0.05 ± 0.059
NMTTNERRVIVPADPHLWSTDHVRQWLEWAVKEYGLPDVNILLFQNIDGKELCKMTKDDFQRLTPSYNADILLSHLHYLRE [T16H]	0.128 ± 0.09
NMTTNERRVIVPADPSLWSTDHVRQWLEWAVKEYGLPDVNILLFQNIDGKELCKMTKDDFQRLTPSYNADILLSHLHYLRE [T16S]	-0.064 ± 0.054
NMTTNERRVIVPADPMLWSTDHVRQWLEWAVKEYGLPDVNILLFQNIDGKELCKMTKDDFQRLTPSYNADILLSHLHYLRE [T16M]	0.02 ± 0.053
NMTTNERRVIVPADPYLWSTDHVRQWLEWAVKEYGLPDVNILLFQNIDGKELCKMTKDDFQRLTPSYNADILLSHLHYLRE [T16Y]	0.017 ± 0.081
NMTTNERRVIVPADPFLWSTDHVRQWLEWAVKEYGLPDVNILLFQNIDGKELCKMTKDDFQRLTPSYNADILLSHLHYLRE [T16F]	-0.008 ± 0.11
NMTTNERRVIVPADPPLWSTDHVRQWLEWAVKEYGLPDVNILLFQNIDGKELCKMTKDDFQRLTPSYNADILLSHLHYLRE [T16P]	-0.428 ± 0.11
NMTTNERRVIVPADPNLWSTDHVRQWLEWAVKEYGLPDVNILLFQNIDGKELCKMTKDDFQRLTPSYNADILLSHLHYLRE [T16N]	-0.061 ± 0.075
NMTTNERRVIVPADPCLWSTDHVRQWLEWAVKEYGLPDVNILLFQNIDGKELCKMTKDDFQRLTPSYNADILLSHLHYLRE [T16C]	0.028 ± 0.066
NMTTNERRVIVPADPILWSTDHVRQWLEWAVKEYGLPDVNILLFQNIDGKELCKMTKDDFQRLTPSYNADILLSHLHYLRE [T16I]	0.048 ± 0.082
NMTTNERRVIVPADPRLWSTDHVRQWLEWAVKEYGLPDVNILLFQNIDGKELCKMTKDDFQRLTPSYNADILLSHLHYLRE [T16R]	-0.092 ± 0.038
NMTTNERRVIVPADPGLWSTDHVRQWLEWAVKEYGLPDVNILLFQNIDGKELCKMTKDDFQRLTPSYNADILLSHLHYLRE [T16G]	-0.026 ± 0.033
NMTTNERRVIVPADPWLWSTDHVRQWLEWAVKEYGLPDVNILLFQNIDGKELCKMTKDDFQRLTPSYNADILLSHLHYLRE [T16W]	-0.115 ± 0.054
NMTTNERRVIVPADPDLWSTDHVRQWLEWAVKEYGLPDVNILLFQNIDGKELCKMTKDDFQRLTPSYNADILLSHLHYLRE [T16D]	-0.115 ± 0.072
NMTTNERRVIVPADPLLWSTDHVRQWLEWAVKEYGLPDVNILLFQNIDGKELCKMTKDDFQRLTPSYNADILLSHLHYLRE [T16L]	0.052 ± 0.046
